From publication PMC10700433

Key:
[1] = target: IgG4 control antibody; experiment: BLI; Octet RED96; antibodies captured on FABG2 biosensor tips, recombinant FcRn in solution; association studied at physiological pH, dissociation at pH6
[2] = target: IgG4 control antibody; experiment: BLI; Octet RED96; antibodies captured on FABG2 biosensor tips, recombinant Fcγ receptors in solution at suitable concentration ranges; association and dissociation at physiological pH

Sequence of mouse FcγRIV (A0A0B4J1G0 21-249): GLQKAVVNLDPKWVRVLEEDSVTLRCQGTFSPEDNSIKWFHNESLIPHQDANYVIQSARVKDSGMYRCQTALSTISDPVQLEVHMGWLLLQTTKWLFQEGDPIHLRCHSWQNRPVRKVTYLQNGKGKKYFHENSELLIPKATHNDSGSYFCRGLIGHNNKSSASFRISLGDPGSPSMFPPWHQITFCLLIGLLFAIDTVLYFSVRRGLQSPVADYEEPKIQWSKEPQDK
Sequence of human FcRn (P55899 24-365): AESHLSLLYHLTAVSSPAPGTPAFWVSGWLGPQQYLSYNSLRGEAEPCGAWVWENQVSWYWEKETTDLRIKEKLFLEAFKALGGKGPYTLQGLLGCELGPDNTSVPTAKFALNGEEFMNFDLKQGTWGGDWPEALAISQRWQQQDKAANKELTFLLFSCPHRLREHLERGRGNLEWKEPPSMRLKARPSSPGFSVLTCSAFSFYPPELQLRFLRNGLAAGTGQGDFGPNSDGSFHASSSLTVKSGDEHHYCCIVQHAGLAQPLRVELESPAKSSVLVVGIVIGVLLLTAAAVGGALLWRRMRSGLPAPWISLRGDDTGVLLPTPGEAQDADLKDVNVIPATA
Sequence of mouse FcRn (Q61559 22-365): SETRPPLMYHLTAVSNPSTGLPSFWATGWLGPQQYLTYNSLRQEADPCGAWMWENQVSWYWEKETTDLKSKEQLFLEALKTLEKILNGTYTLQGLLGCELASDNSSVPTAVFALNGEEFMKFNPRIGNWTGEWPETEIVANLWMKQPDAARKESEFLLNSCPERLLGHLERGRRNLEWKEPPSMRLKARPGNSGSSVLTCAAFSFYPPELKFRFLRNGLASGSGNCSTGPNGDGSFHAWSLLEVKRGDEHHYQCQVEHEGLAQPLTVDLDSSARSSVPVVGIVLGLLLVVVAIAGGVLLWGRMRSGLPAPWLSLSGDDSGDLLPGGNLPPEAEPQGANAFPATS
Sequence of mouse FcγRI (P26151 25-404): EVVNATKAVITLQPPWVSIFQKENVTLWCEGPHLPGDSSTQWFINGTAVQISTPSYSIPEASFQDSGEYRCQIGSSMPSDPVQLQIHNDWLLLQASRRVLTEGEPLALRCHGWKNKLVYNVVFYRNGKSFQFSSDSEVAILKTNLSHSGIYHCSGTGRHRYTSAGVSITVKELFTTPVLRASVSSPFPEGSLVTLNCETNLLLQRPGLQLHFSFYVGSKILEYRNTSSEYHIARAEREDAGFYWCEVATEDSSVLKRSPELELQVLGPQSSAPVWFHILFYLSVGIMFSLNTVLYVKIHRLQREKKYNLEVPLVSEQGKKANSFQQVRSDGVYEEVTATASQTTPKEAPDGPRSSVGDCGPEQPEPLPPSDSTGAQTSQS

Substance | Kd [1] [nM] | Kd [2] [nM]
human FcRn (from UniProt P55899 24-365) (receptor) | 600 | 
human FcγRIII 176V (from UniProt P08637 17-254) (receptor) |  | 600000
mouse FcRn (from UniProt Q61559 22-365) (receptor) | 200 | 
mouse FcγRIV (from UniProt A0A0B4J1G0 21-249) (receptor) |  | 2000

The remaining substances from weak to strong by Kd [2], led by results:

Kd [1] [nM] | Kd [2] [nM] | Substance
 | 700 | mouse FcγRIIb (from UniProt P08101 30-330) (receptor)
 | 600 | human FcγRIIb (from UniProt P31994 43-310) (receptor)
 | 500 | human FcγRIIa (from UniProt P12318 34-317) (receptor)
 | 200 | mouse FcγRI (from UniProt P26151 25-404) (receptor)
 | 100 | mouse FcγRIII (from UniProt P08508 31-261) (receptor)
